How the values were obtained:
[1] = biological target: human TIGIT expressed on cells (YTS-TIGIT transfectants, NK cells of healthy donors, CD8+ TILs) (human) (UniProt Q495A1); experiment: FACS on 75×10^3 YTS-TIGIT cells, serial dilutions 250 nM to 65 fM
[2] = biological target: human TIGIT expressed on cells (YTS-TIGIT transfectants, NK cells of healthy donors, CD8+ TILs) (human) (UniProt Q495A1); experiment: FACS blocking assay on YTS-TIGIT cells: antibody titrated against 2.5 pmole PVR-Fc, bound PVR-Fc detected
[3] = biological target: human TIGIT expressed on cells (YTS-TIGIT transfectants, NK cells of healthy donors, CD8+ TILs) (human) (UniProt Q495A1); experiment: FACS on YTS-TIGIT cells in the presence of 2.5 pmole PVR-Fc, bound antibody detected with anti-mouse IgG Alexa Fluor 647
[4] = biological target: T1, human TIGIT expressed on cells (YTS-TIGIT transfectants, NK cells of healthy donors, CD8+ TILs) (human, UniProt Q495A1 22-244); experiment: FACS titration on YTS-TIGIT cells, fluorescence intensity against antibody concentration
T1 construct: whole, on cells; also called hTIGIT; T-cell immunoglobulin and ITIM domain
T1 sequence (looked up): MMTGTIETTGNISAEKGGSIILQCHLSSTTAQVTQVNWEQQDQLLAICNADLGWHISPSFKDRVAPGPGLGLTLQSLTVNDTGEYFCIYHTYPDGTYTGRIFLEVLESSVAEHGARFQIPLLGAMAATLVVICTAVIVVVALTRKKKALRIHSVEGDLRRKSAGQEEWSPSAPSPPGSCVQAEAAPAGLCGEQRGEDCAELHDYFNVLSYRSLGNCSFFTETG
Description: FIG. 6A. […] Background—staining of mIgG (grey filled histograms). Each panel represents a specific concentration of the antibodies as indicated. Y-axis of each panel is cell counts and X-axis is fluorescence intensity (FL1-H).

[5] = biological target: T2, human TIGIT from two commercial sources (loaded on Biacore biosensor) (human, UniProt Q495A1 22-141); experiment: SPR (Biacore), human TIGIT on the biosensor; average of two commercial sources; average of the two TIGIT sources
T2 sequence (looked up): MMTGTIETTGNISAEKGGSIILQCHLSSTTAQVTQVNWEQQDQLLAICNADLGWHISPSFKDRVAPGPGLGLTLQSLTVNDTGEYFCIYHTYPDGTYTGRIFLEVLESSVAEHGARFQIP
Description: (§1) Surface plasmon resonance (SPR) Biosensor Biacore™ T100 (GE Healthcare) was used to determine Koff, Kon and KD between the antibodies and TIGIT.
(§2) Full binding kinetic analyses of the mAbs to human TIGIT from two sources were carried out using Biacore.

[6] = biological target: T2, human TIGIT from two commercial sources …; experiment: SPR (Biacore), human TIGIT on the biosensor; one of two commercial sources; one of two TIGIT sources (source not named)
Description: as §1, §2

[7] = biological target: T2, human TIGIT from two commercial sources …; experiment: SPR (Biacore), human TIGIT on the biosensor; one of two commercial sources; the other of two TIGIT sources (source not named)
Description: as §1, §2

| Molecule | lowest concentration at which cells were stained [1] [fM] | MFI of bound PVR-Fc, antibody at 0.014 pmol [2] | MFI of bound PVR-Fc, antibody at 0.028 pmol [2] | MFI of bound PVR-Fc, antibody at 0.056 pmol [2] | MFI of bound PVR-Fc, antibody at 0.115 pmol [2] | MFI of bound PVR-Fc, antibody at 0.21 pmol [2] | MFI of bound PVR-Fc, antibody at 0.425 pmol [2] | MFI of bound antibody at 0.014 pmol [3] | MFI of bound antibody at 0.028 pmol [3] | MFI of bound antibody at 0.056 pmol [3] | MFI of bound antibody at 0.115 pmol [3] | MFI of bound antibody at 0.21 pmol [3] | MFI of bound antibody at 0.425 pmol [3] | MFI of bound antibody at 0.85 pmol [3] | MFI of bound antibody at 27 pmol [3] | EC50 (read off the curve) [4] [nM] | Kd [5] [nM] | Kd [6] [nM] | Kd [7] [nM] |
| --- | --- | --- | --- | --- | --- | --- | --- | --- | --- | --- | --- | --- | --- | --- | --- | --- | --- | --- | --- |
| commercial anti-TIGIT antibody MBSA43 (eBioscience Cat#12-9500-42) | > 1950 | 34 | 27.1 | 22.6 | 12.6 | 7.8 | 4.5 | 64 | 88 | 150 | 224 | 302 | 325 | 380 | 445 |  |  |  |  |
| anti human TIGIT monoclonal antibody VSIG9#1 (antibody, V domains shown, Mouse monoclonal antibody from a hybridoma; It was detected with anti-mouse IgG; also called Vsig9.01; anti TIGIT-VSIG9#1) VH: QVQLQESGAELARPGASVKLSCKASGYTFTSYGISWVKQRTGQGLEWIGEIYPRSGNTYYNEKFKGKATLTADKSSSTAYMELSSLTSEDSAVYFCARKGPYYTKNEDYWGQGTILTVSS VL: DIQMTQSPASLAASVGETVTITCRASEHIYYSLAWYQQKQGKSPQLLIYNANSLEDGVPSRFSGSGSGTQYSMKINSMQPEDTATYFCKQAYDVPRTFGGGTKLEIKR |  |  |  |  |  |  |  |  |  |  |  |  |  |  |  | ~0.007 | 0.45 | 0.513 | 0.387 |
| anti human TIGIT monoclonal antibody 258-CS1#4 (antibody, V domains shown, Mouse monoclonal antibody from a hybridoma) VH: QVQLLQPGAELVKPGASVKLSCKASGYTFTIYCIHWVKQRPGQGLEWIGEISPSNGRTIYNEKFKNKATLTIDKSSTTAYMQLSSLTSEDSAVYCCAISDGYDGYYFDYWGQGTTLTVSS VL: DIQMTQSPSSLSASLGERVSLTCRASQEISGYLNWLQQKPDGTIKRLIYAASTLDSGVPKRFSGSRSGSDYSLTISRLESEDFADYYCLQYASYPRTFGGGTKLEIK |  |  |  |  |  |  |  |  |  |  |  |  |  |  |  |  | ~100 | 99.6 | 107 |

Source: US20210220472A1 (YISSUM RESEARCH DEVELOPMENT COMPANY OF THE HEBREW …, published 2021)
